# Article PMC5134256 (Nature, 2016)
# Biological target: the molecule itself
# Assay: crystal structure
protein,measurement,value
"Cse2 subunit of E. coli Cascade, His6 tag cleaved (natural protein, E. coli K12, UniProt P76632 1-160, looked up) MADEIDAMALYRAWQQLDNGSCAQIRRVSEPDELRDIPAFYRLVQPFGWENPRHQQALLRMVFCLSAGKNVIRHQDKKSEQTTGISLGRALANSGRINERRIFQLIRADRTADMVQLRRLLTHAEPVLDWPLMARMLTWWGKRERQQLLEDFVLTTNKNA",stoichiometry N,2
